# Data as given in paper PMC9482650, “Quantitative fragmentomics allow affinity mapping of interactomes” (Nature Communications, 2022).
# Substitutions are numbered along the chain they refer to.
# Target: T1, LIN7C, Q9NUP9
# T1 sequence (Q9NUP9 88-185, limits assumed, looked up): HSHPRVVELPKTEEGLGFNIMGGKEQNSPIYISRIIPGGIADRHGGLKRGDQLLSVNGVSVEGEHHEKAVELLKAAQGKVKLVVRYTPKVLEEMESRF
# Experiment: holdup assay
# Set-up: key: below the threshold = too weak to quantify, mostly under pKd 3.1 to 4
# Settings: plain residues with an end cap or a label only (N-terminal biotin on a linker: ttds)
row,Binder,pKd
1,"PKTPPTDTSV [KIR3DL3, Q8N743]",3.51
2,"SSRTRRETQL [HPV16-E6, P03126]",4.04

# Target: MAGI3_2, Q5TCQ9
# Experiment: holdup assay
# Set-up: key: below the threshold = too weak to quantify, mostly under pKd 3.1 to 4
# Settings: plain residues with an end cap or a label only (N-terminal biotin on a linker: ttds)
# Chain of MAGI3_2, Q5TCQ9 (Q5TCQ9 398-503): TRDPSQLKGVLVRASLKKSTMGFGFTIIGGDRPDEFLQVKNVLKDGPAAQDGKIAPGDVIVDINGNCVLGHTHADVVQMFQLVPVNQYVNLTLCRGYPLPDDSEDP
row,Binder,pKd
1,"PKTPPTDTSV [KIR3DL3, Q8N743]",3.71
2,"SSRTRRETQL [HPV16-E6, P03126]",5.31

# Target: T2, RAPGEF6, Q8TEU7
# T2 sequence (Q8TEU7 525-625, limits assumed, looked up): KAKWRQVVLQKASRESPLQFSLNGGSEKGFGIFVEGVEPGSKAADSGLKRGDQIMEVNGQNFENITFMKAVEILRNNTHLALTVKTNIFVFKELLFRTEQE
# Experiment: holdup assay
# Set-up: key: below the threshold = too weak to quantify, mostly under pKd 3.1 to 4
# Settings: plain residues with an end cap or a label only (N-terminal biotin on a linker: ttds)
row,Binder,pKd
1,"PKTPPTDTSV [KIR3DL3, Q8N743]",below the threshold
2,"SSRTRRETQL [HPV16-E6, P03126]",3.66

# Target: FRMPD2_1, Q68DX3
# Experiment: holdup assay
# Set-up: key: below the threshold = too weak to quantify, mostly under pKd 3.1 to 4
# Settings: plain residues with an end cap or a label only (N-terminal biotin on a linker: ttds)
# Chain of FRMPD2_1, Q68DX3 (Q68DX3 770-861): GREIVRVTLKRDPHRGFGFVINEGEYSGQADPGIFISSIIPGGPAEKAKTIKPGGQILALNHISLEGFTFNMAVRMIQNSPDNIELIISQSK
row,Binder,pKd
1,"PKTPPTDTSV [KIR3DL3, Q8N743]",below the threshold
2,"SSRTRRETQL [HPV16-E6, P03126]",4.12

# Target: Inadl_6, Q8NI35
# Experiment: holdup assay
# Set-up: key: below the threshold = too weak to quantify, mostly under pKd 3.1 to 4
# Settings: plain residues with an end cap or a label only (N-terminal biotin on a linker: ttds)
# Chain of Inadl_6, Q8NI35 (Q8NI35 1058-1167): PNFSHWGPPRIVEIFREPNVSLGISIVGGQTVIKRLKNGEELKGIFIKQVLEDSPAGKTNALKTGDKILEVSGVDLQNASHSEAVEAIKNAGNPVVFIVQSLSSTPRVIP
row,Binder,pKd
1,"PKTPPTDTSV [KIR3DL3, Q8N743]",below the threshold
2,"SSRTRRETQL [HPV16-E6, P03126]",3.49

# Target: SCRIB_3, Q14160
# Experiment: holdup assay
# Set-up: key: below the threshold = too weak to quantify, mostly under pKd 3.1 to 4
# Settings: plain residues with an end cap or a label only (N-terminal biotin on a linker: ttds)
# Chain of SCRIB_3, Q14160 (Q14160 999-1103): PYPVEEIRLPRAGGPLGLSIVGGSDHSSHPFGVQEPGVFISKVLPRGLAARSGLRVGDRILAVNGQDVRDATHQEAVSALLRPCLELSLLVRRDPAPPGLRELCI
row,Binder,pKd
1,"PKTPPTDTSV [KIR3DL3, Q8N743]",below the threshold
2,"SSRTRRETQL [HPV16-E6, P03126]",5.29

# Target: T3, SNTB1, Q13884
# T3 sequence (Q13884 107-205, limits assumed, looked up): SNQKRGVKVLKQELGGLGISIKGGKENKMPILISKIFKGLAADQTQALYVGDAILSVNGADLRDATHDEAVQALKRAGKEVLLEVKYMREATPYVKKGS
# Experiment: holdup assay
# Set-up: key: below the threshold = too weak to quantify, mostly under pKd 3.1 to 4
# Settings: plain residues with an end cap or a label only (N-terminal biotin on a linker: ttds)
row,Binder,pKd
1,"PKTPPTDTSV [KIR3DL3, Q8N743]",below the threshold
2,"SSRTRRETQL [HPV16-E6, P03126]",4.92

# Target: T4, TIAM2, Q8IVF5
# T4 sequence (Q8IVF5 885-986, limits assumed, looked up): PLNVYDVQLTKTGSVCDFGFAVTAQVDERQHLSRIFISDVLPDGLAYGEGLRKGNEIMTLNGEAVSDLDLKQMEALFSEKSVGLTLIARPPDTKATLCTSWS
# Experiment: holdup assay
# Set-up: key: below the threshold = too weak to quantify, mostly under pKd 3.1 to 4
# Settings: plain residues with an end cap or a label only (N-terminal biotin on a linker: ttds)
row,Binder,pKd
1,"PKTPPTDTSV [KIR3DL3, Q8N743]",below the threshold
2,"SSRTRRETQL [HPV16-E6, P03126]",below the threshold

# Target: T5, RHPN1, Q8TCX5
# T5 sequence (Q8TCX5 508-602, limits assumed, looked up): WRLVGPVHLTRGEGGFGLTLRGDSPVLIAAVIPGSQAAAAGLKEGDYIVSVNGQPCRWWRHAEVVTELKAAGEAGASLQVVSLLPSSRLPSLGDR
# Experiment: holdup assay
# Set-up: key: below the threshold = too weak to quantify, mostly under pKd 3.1 to 4
# Settings: plain residues with an end cap or a label only (N-terminal biotin on a linker: ttds)
row,Binder,pKd
1,"PKTPPTDTSV [KIR3DL3, Q8N743]",below the threshold
2,"SSRTRRETQL [HPV16-E6, P03126]",4.23

# Target: NHERF4_1, Q86UT5-2
# Experiment: holdup assay
# Set-up: key: below the threshold = too weak to quantify, mostly under pKd 3.1 to 4
# Settings: plain residues with an end cap or a label only (N-terminal biotin on a linker: ttds)
# Chain of NHERF4_1, Q86UT5-2 (Q86UT5 other isoform, or with tags, fused parts or gaps): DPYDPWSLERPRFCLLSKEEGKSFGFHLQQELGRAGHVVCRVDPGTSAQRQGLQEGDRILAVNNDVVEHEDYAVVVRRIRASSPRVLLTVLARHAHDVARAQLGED
row,Binder,pKd
1,"PKTPPTDTSV [KIR3DL3, Q8N743]",below the threshold
2,"SSRTRRETQL [HPV16-E6, P03126]",4.25

# Target: T6, DLG3_1, Q92796
# T6 sequence (Q92796 125-227, limits assumed, looked up): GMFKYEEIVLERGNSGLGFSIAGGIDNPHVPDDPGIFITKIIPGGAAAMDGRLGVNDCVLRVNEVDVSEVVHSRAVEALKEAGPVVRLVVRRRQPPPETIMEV
# Experiment: holdup assay
# Set-up: key: below the threshold = too weak to quantify, mostly under pKd 3.1 to 4
# Settings: plain residues with an end cap or a label only (N-terminal biotin on a linker: ttds)
row,Binder,pKd
1,"PKTPPTDTSV [KIR3DL3, Q8N743]",3.69
2,"SSRTRRETQL [HPV16-E6, P03126]",3.96

# Target: DLG4_1, P78352
# Experiment: holdup assay
# Set-up: key: below the threshold = too weak to quantify, mostly under pKd 3.1 to 4
# Settings: plain residues with an end cap or a label only (N-terminal biotin on a linker: ttds)
# Chain of DLG4_1, P78352 (P78352 62-152): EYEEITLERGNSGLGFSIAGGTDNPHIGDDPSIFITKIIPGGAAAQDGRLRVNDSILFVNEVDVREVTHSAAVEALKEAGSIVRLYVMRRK
row,Binder,pKd
1,"PKTPPTDTSV [KIR3DL3, Q8N743]",4.04
2,"SSRTRRETQL [HPV16-E6, P03126]",4.73

# Target: MAGI1_1, Q96QZ7
# Experiment: holdup assay
# Set-up: key: below the threshold = too weak to quantify, mostly under pKd 3.1 to 4
# Settings: plain residues with an end cap or a label only (N-terminal biotin on a linker: ttds)
# Chain of MAGI1_1, Q96QZ7 (Q96QZ7 1-106): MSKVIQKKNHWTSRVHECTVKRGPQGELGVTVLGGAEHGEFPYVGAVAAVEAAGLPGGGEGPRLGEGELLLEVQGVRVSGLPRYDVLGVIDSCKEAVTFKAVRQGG
row,Binder,pKd
1,"PKTPPTDTSV [KIR3DL3, Q8N743]",below the threshold
2,"SSRTRRETQL [HPV16-E6, P03126]",3.5

# Target: T7, LIN7B, Q9HAP6
# T7 sequence (Q9HAP6 88-185, limits assumed, looked up): T1 sequence (Q9NUP9 88-185, limits assumed, looked up) with S2A, E13D, I35V, I40V, H65Q, K79S, K89R, S96A
# Experiment: holdup assay
# Set-up: key: below the threshold = too weak to quantify, mostly under pKd 3.1 to 4
# Settings: plain residues with an end cap or a label only (N-terminal biotin on a linker: ttds)
row,Binder,pKd
1,"PKTPPTDTSV [KIR3DL3, Q8N743]",below the threshold
2,"SSRTRRETQL [HPV16-E6, P03126]",3.91

# Target: T8, MPDZ_5, O75970
# T8 sequence (O75970 695-796, limits assumed, looked up): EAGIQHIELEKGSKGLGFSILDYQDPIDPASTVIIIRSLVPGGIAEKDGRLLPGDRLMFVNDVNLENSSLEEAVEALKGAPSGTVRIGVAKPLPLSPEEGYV
# Experiment: holdup assay
# Set-up: key: below the threshold = too weak to quantify, mostly under pKd 3.1 to 4
# Settings: plain residues with an end cap or a label only (N-terminal biotin on a linker: ttds)
row,Binder,pKd
1,"PKTPPTDTSV [KIR3DL3, Q8N743]",below the threshold
2,"SSRTRRETQL [HPV16-E6, P03126]",3.67

# Target: T9, DFNB31_2, Q9P202
# T9 sequence (Q9P202 274-371, limits assumed, looked up): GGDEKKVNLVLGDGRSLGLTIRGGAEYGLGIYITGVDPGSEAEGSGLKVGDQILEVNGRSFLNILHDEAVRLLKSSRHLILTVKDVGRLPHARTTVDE
# Experiment: holdup assay
# Set-up: key: below the threshold = too weak to quantify, mostly under pKd 3.1 to 4
# Settings: plain residues with an end cap or a label only (N-terminal biotin on a linker: ttds)
row,Binder,pKd
1,"PKTPPTDTSV [KIR3DL3, Q8N743]",below the threshold
2,"SSRTRRETQL [HPV16-E6, P03126]",below the threshold

# Target: LNX1_3, Q8TBB1
# Experiment: holdup assay
# Set-up: key: below the threshold = too weak to quantify, mostly under pKd 3.1 to 4
# Settings: plain residues with an end cap or a label only (N-terminal biotin on a linker: ttds)
# Chain of LNX1_3, Q8TBB1 (Q8TBB1 500-596): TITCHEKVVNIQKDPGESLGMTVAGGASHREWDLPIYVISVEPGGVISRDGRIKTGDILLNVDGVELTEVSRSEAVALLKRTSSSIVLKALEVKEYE
row,Binder,pKd
1,"PKTPPTDTSV [KIR3DL3, Q8N743]",below the threshold
2,"SSRTRRETQL [HPV16-E6, P03126]",3.51

# Target: T10, MPP7, Q5T2T1
# T10 sequence (Q5T2T1 134-230, limits assumed, looked up): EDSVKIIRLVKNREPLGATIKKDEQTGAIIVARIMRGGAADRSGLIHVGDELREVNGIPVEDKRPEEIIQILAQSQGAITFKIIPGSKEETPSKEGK
# Experiment: holdup assay
# Set-up: key: below the threshold = too weak to quantify, mostly under pKd 3.1 to 4
# Settings: plain residues with an end cap or a label only (N-terminal biotin on a linker: ttds)
row,Binder,pKd
1,"PKTPPTDTSV [KIR3DL3, Q8N743]",below the threshold
2,"SSRTRRETQL [HPV16-E6, P03126]",below the threshold

# Target: GORASP1, Q9BQQ3
# Experiment: holdup assay
# Set-up: key: below the threshold = too weak to quantify, mostly under pKd 3.1 to 4
# Settings: plain residues with an end cap or a label only (N-terminal biotin on a linker: ttds)
# Chain of GORASP1, Q9BQQ3 (Q9BQQ3 1-208): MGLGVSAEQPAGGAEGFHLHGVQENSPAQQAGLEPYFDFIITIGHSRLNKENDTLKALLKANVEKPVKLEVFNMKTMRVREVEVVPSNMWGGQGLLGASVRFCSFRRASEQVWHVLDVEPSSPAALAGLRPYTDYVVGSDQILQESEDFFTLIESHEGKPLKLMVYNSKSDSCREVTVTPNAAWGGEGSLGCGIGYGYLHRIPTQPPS
row,Binder,pKd
1,"PKTPPTDTSV [KIR3DL3, Q8N743]",below the threshold
2,"SSRTRRETQL [HPV16-E6, P03126]",3.52

# Target: MAGI2_2, Q86UL8
# Experiment: holdup assay
# Set-up: key: below the threshold = too weak to quantify, mostly under pKd 3.1 to 4
# Settings: plain residues with an end cap or a label only (N-terminal biotin on a linker: ttds)
# Chain of MAGI2_2, Q86UL8 (Q86UL8 410-522): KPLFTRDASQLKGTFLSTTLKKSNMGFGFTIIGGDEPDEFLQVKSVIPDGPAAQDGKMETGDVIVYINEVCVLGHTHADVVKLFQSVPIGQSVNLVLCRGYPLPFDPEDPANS
row,Binder,pKd
1,"PKTPPTDTSV [KIR3DL3, Q8N743]",below the threshold
2,"SSRTRRETQL [HPV16-E6, P03126]",4.87

# Target: T11, NHERF3_3, Q5T2W1
# T11 sequence (Q5T2W1 238-333, limits assumed, looked up): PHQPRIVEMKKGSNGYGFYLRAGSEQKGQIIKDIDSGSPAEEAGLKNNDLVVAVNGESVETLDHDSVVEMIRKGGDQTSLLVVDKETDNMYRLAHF
# Experiment: holdup assay
# Set-up: key: below the threshold = too weak to quantify, mostly under pKd 3.1 to 4
# Settings: plain residues with an end cap or a label only (N-terminal biotin on a linker: ttds)
row,Binder,pKd
1,"PKTPPTDTSV [KIR3DL3, Q8N743]",below the threshold
2,"SSRTRRETQL [HPV16-E6, P03126]",3.72

# Target: SNX27, Q96L92
# Experiment: holdup assay
# Set-up: key: below the threshold = too weak to quantify, mostly under pKd 3.1 to 4
# Settings: plain residues with an end cap or a label only (N-terminal biotin on a linker: ttds)
row,Binder,pKd
1,"PKTPPTDTSV [KIR3DL3, Q8N743]",4.28
2,"SSRTRRETQL [HPV16-E6, P03126]",4.91

# Target: T12, PTPN13_1, Q12923
# T12 sequence (Q12923 1088-1188, limits assumed, looked up): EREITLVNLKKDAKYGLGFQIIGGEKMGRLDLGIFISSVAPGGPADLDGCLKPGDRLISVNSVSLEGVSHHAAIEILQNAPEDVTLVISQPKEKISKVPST
# Experiment: holdup assay
# Set-up: key: below the threshold = too weak to quantify, mostly under pKd 3.1 to 4
# Settings: plain residues with an end cap or a label only (N-terminal biotin on a linker: ttds)
row,Binder,pKd
1,"PKTPPTDTSV [KIR3DL3, Q8N743]",below the threshold
2,"SSRTRRETQL [HPV16-E6, P03126]",3.56

# Target: T13, PDZRN3_1, Q9UPQ7
# T13 sequence (Q9UPQ7 244-349, limits assumed, looked up): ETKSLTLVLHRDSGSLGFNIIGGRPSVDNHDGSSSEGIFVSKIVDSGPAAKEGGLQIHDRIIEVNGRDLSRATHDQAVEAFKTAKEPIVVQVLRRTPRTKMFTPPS
# Experiment: holdup assay
# Set-up: key: below the threshold = too weak to quantify, mostly under pKd 3.1 to 4
# Settings: plain residues with an end cap or a label only (N-terminal biotin on a linker: ttds)
row,Binder,pKd
1,"PKTPPTDTSV [KIR3DL3, Q8N743]",below the threshold
2,"SSRTRRETQL [HPV16-E6, P03126]",5.66
